The experiment addresses Aβ oligomers, P05067. Put plainly: SPR (Biacore), 3F fixed on CM5 chip, Aβ oligomers in flow. To be noted: remark: other sources report otherwise.

Aβ oligomers, P05067, sequence (P05067 672-713): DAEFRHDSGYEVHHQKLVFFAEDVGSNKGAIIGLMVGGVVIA

B1: antibody 3F (scFv)
scFv: MAEVQLLESGGGLVQPGGSLRLSCAASGFTFSSYAMSWVRQAPGKGLEWVSGISNLGLTTGYADSVKGRFTISRDNSKNTLYLQMNSLRAEDTAVYYCAKTTSRFDYWGQGTLVTVSSGGGGSGGGGSGGGGSTDIQMTQSPSSLSASVGDRVTITCRASQSISSYLNWYQQKPGKAPKLLIYKASYLQSGVPSRFSGSGSGTDFTLTISSLQPEDFATYYCQNSAVRPVTFGQGTKVEIKR
As usually defined, the Kd is the constant that tells how readily two partners part at equilibrium. The low end stands for tighter binding, the high end for weaker binding. Turning to B1, the Kd is 847 pM.

(Values after EP4570823A1.)
